Test results taken from patent publication US20060115870.

Molecular target: T1, Long S6 substrate peptide (32 amino-acid)
T1 chain: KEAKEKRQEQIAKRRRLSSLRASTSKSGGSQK

B1: Human recombinant Rho kinase (ROKα/ROCK-II, amino acids 11-552), human active, catalog #14-451, Upstate USA, Inc. (protein)
chain: PGAPETAPGDGAGASRQRKLEALIRDPRSPINVESLLDGLNSLVLDLDFPALRKNKNIDNFLNRYEKIVKKIRGLQMKAEDYDVVKVIGRGAFGEVQLVRHKASQKVYAMKLLSKFEMIKRSDSAFFWEERDIMAFANSPWVVQLFYAFQDDRYLYMVMEYMPGGDLVNLMSNYDVPEKWAKFYTAEVVLALDAIHSMGLIHRDVKPDNMLLDKHGHLKLADFGTCMKMDETGMVHCDTAVGTPDYISPEVLKSQGGDGFYGRECDWWSVGVFLYEMLVGDTPFYADSLVGTYSKIMDHKNSLCFPEDAEISKHAKNLICAFLTDREVRLGRNGVEEIRQHPFFKNDQWHWDNIRETAAPVVPELSSDIDSSNFDDIEDDKGDVETFPIPKAFVGNQLPFIGFTYYRENLLLSDSPSCRENDSIQSRKNEESQEIQKKLYTLEEHLSNEMQAKEELEQKCKSVNTRLEKTAKELEEEITLRKSVESALRQLEREKALLQHKNAEYQRKADHEADKKRNLENDVNSLKDQLEDLKKRNQNSQI
- Maximum DPMs found in phosphorylated substrate (i.e. product): 52,557±2,058 (n=14) (0.22% of total added DPMs)
- Net fold phosphorylation of substrate (33P incorporation, filter mat kinase assay): 4.4-fold above basal blanks (n=14 experiments; 42 separate assay determinations)
